In patent US20260034194A1, “PHARMACEUTICAL COMPOSITIONS AND METHODS OF TREATING PSP” (priority 2022, published 2026):
Like-named read-outs stand apart in the source and are kept apart here.

How the values were obtained:
[1] = format: binding; settings: for Kd: FP, 1 nM F-STX, 25° C., errors S.D.; for ΔΔG: ΔΔG = RT ln(Kd mutant or XSxph/Kd RcSxph), T = 298K, FP with F-STX
[2] = format: binding; settings: ITC, STX, 25° C.
Protocol: . […] In almost all mutants, binding affinity loss correlated with a reduction in enthalpy, consistent with a loss of interactions (Table S2). […]. […] Together, these three assays (FIGS. 1E and G) provide a robust and versatile suite of options for characterizing STX:Sxph interactions.
ITC measurements were performed at 25° C. using a MicroCal PEAQ-ITC calorimeter (Malvern Panalytical). […]. This STX stock was diluted with the SEC buffer to prepare 100 μM or 300 μM STX solutions having a final buffer composition of 135 mM NaCl, 9 mM HEPES, pH 7.4. […]. The calorimetric experiment settings were: reference power, 5 μcal/s; spacing between injections, 150 s; stir speed 750 rpm; and feedback mode, high. Data were analyzed using MicroCal PEAQ-ITC Analysis Software (Malvern Panalytical) using a single binding site model. The heat of dilution from titrations of 100 μM STX in 135 mM NaCl, 9 mM HEPES, pH 7.4 into 135 mM NaCl, 9 mM HEPES, pH 7.4 was subtracted from each experiment to correct the baseline.

Row | Molecule | Kd [1] | ΔΔG [1] | Kd [2] | ΔG [2] | ΔH [2] | ΔS (cal mol^−1 K^−1) [2]
1 | E540D: RcSxph STX binding pocket mutant E540D (protein) MAPTFQTALFFTIISLSFAAPNAKQVRWCAISDLEQKKCNDLVGSCNVPDITLVCVLRSSTEDCMTAIKDGQADAMFLDSGEVYEASKDPYNLKPIIAEPYSSNRDLQKCLKERQQALAKKMIGHYIPQCDEKGNYQPQQCHGSTGHCWCVNAMGEKISGTNTPPGQTRATCERHELPKCLKERQVALGGDEKVLGRFVPQCDEKGNYEPQQFHGSTGYSWCVNAIGEEIAGTKTPPGKIPATCQKHDLVTTCHYAVAMVKKSSAFQFNQLKGKRSCHSGVSKTDGWKALVTVLVEKKLLSWDGPAKESIQRAMSKFFSVSCIPGATQTNLCKQCKGEEGKNCKNSHDEPYYGNYGAFRCLKEDMGDVAFLRSTALSDEHSEVYELLCPDNTRKPLNKYKECNLGTVPAGTVVTRKISDKTEDINNFLMEAQKRQCKLFSSAHGKDLMFDDSTLQLALLSSEVDAFLYLGVKLFHAMKALTGDAHLPSKNKVRWCTINKLEKMKCDDWSAVSGGAIACTEASCPKGCVKQILKGEADAVKLEVQYMYEALMCGLLPAVDEYHNKDDFGPCKTPGSPYTDFGTLRAVALVKKSNKDINWNNIKGKKSCHTGVGDIAGWVIPVSLIRRQNDNSDIDSFFGESCAPGSDTKSNLCKLCIGDPKNSAANTKCSLSDKEAYYGNQGAFRCLVEKGDVAFVPHTVVFENTDGKNPAVWAKNLKSEDFELLCLDGSRAPVSNYKSCKLSGIPPPAIVTREESISDVVRIVANQQSLYGRKGFEKDMFQLFSSNKGNNLLFNDNTQCLITFDRQPKDIMEDYFGKPYYTTVYGASRSAMSSELISACTIKHC | 99.9 ± 25.1 nM | 1.54 kcal/mol | 68.9 ± 10.7 nM | -9.8 ± 0.1 kcal/mol | -16.3 ± 1.7 kcal/mol | −21.9 ± 5.7 cal mol^−1 K^−1
2 | Q787A: RcSxph STX binding pocket mutant Q787A (protein) MAPTFQTALFFTIISLSFAAPNAKQVRWCAISDLEQKKCNDLVGSCNVPDITLVCVLRSSTEDCMTAIKDGQADAMFLDSGEVYEASKDPYNLKPIIAEPYSSNRDLQKCLKERQQALAKKMIGHYIPQCDEKGNYQPQQCHGSTGHCWCVNAMGEKISGTNTPPGQTRATCERHELPKCLKERQVALGGDEKVLGRFVPQCDEKGNYEPQQFHGSTGYSWCVNAIGEEIAGTKTPPGKIPATCQKHDLVTTCHYAVAMVKKSSAFQFNQLKGKRSCHSGVSKTDGWKALVTVLVEKKLLSWDGPAKESIQRAMSKFFSVSCIPGATQTNLCKQCKGEEGKNCKNSHDEPYYGNYGAFRCLKEDMGDVAFLRSTALSDEHSEVYELLCPDNTRKPLNKYKECNLGTVPAGTVVTRKISDKTEDINNFLMEAQKRQCKLFSSAHGKDLMFDDSTLQLALLSSEVDAFLYLGVKLFHAMKALTGDAHLPSKNKVRWCTINKLEKMKCDDWSAVSGGAIACTEASCPKGCVKQILKGEADAVKLEVQYMYEALMCGLLPAVEEYHNKDDFGPCKTPGSPYTDFGTLRAVALVKKSNKDINWNNIKGKKSCHTGVGDIAGWVIPVSLIRRQNDNSDIDSFFGESCAPGSDTKSNLCKLCIGDPKNSAANTKCSLSDKEAYYGNQGAFRCLVEKGDVAFVPHTVVFENTDGKNPAVWAKNLKSEDFELLCLDGSRAPVSNYKSCKLSGIPPPAIVTREESISDVVRIVANQQSLYGRKGFEKDMFQLFSSNKGNNLLFNDNTQCLITFDRAPKDIMEDYFGKPYYTTVYGASRSAMSSELISACTIKHC | 11.3 ± 1.1 nM | 0.25 kcal/mol |  |  |  | 
3 | D794E: RcSxph STX binding pocket mutant D794E (protein) MAPTFQTALFFTIISLSFAAPNAKQVRWCAISDLEQKKCNDLVGSCNVPDITLVCVLRSSTEDCMTAIKDGQADAMFLDSGEVYEASKDPYNLKPIIAEPYSSNRDLQKCLKERQQALAKKMIGHYIPQCDEKGNYQPQQCHGSTGHCWCVNAMGEKISGTNTPPGQTRATCERHELPKCLKERQVALGGDEKVLGRFVPQCDEKGNYEPQQFHGSTGYSWCVNAIGEEIAGTKTPPGKIPATCQKHDLVTTCHYAVAMVKKSSAFQFNQLKGKRSCHSGVSKTDGWKALVTVLVEKKLLSWDGPAKESIQRAMSKFFSVSCIPGATQTNLCKQCKGEEGKNCKNSHDEPYYGNYGAFRCLKEDMGDVAFLRSTALSDEHSEVYELLCPDNTRKPLNKYKECNLGTVPAGTVVTRKISDKTEDINNFLMEAQKRQCKLFSSAHGKDLMFDDSTLQLALLSSEVDAFLYLGVKLFHAMKALTGDAHLPSKNKVRWCTINKLEKMKCDDWSAVSGGAIACTEASCPKGCVKQILKGEADAVKLEVQYMYEALMCGLLPAVEEYHNKDDFGPCKTPGSPYTDFGTLRAVALVKKSNKDINWNNIKGKKSCHTGVGDIAGWVIPVSLIRRQNDNSDIDSFFGESCAPGSDTKSNLCKLCIGDPKNSAANTKCSLSDKEAYYGNQGAFRCLVEKGDVAFVPHTVVFENTDGKNPAVWAKNLKSEDFELLCLDGSRAPVSNYKSCKLSGIPPPAIVTREESISDVVRIVANQQSLYGRKGFEKDMFQLFSSNKGNNLLFNDNTQCLITFDRQPKDIMEEYFGKPYYTTVYGASRSAMSSELISACTIKHC | 1070 ± 69.3 nM | 2.94 kcal/mol | 312.5 ± 2.9 nM | -8.9 ± 0.1 kcal/mol | -11.8 ± 0.0 kcal/mol | −8.9 ± 0.1 cal mol^−1 K^−1
4 | OsSxph: Oophaga sylvatica (Little devil poison frog) saxiphilin, SEQ ID NO: 5 (protein, listed as Oophaga sylvatica) MRMTLQVLLCLCLLVLSSAAPNSRNVRWCVTSDTEEQKCNDLVTSCHVDEILLICVKKSSKEDCVRAISNGEADAISLDSKDVYKASLDPFNLKPIMTEAYSESEQTPCMRHRQSVLGGKKMIIGAFVPKCDEKGNYVPKQCHDSTGFCWCLNENGEEIEGTRTPPGNSGLTCENKANKPPCLKERQKLLSAKPSPAVFVPECDEKGNYRPEQSHVYSWCVDEYGEEVLGSRTFPGKPPKPCEASGETPCIKERNKVLSAAEPLPGAFVPDCDEKGYFSPLQFHGSTGHSWCVTKNGEEIKGTRTRPGQTPPTCDVPAPATLHYAVAVVKKSSSFQLDQLKGKRSCHSAVGEAAGWVAPLNVLLKKKFLLWEEPEQKSTEKVASEIFSASCAAGAQEANLCEQCAGQEDKCTRGPGEPYYGDEGAIRCLRDDKGDVAFVEDTALTGQYSDNFELLCPDNTRRPLSQYKICNFGSVPRHAVVTRSTGDKMKEITEYLLQAQKKECKLFSSTHGKDLLFEDTTSALIALPSGMDTFLFLGPDLFNGMKTLNGAHPPRVKQKIRWCPQNKNEKKKCDDWSSVSGGSIKCTEPSSALECIKMILKDEADAVNLDAEHAYTALKCGLLPSLEEYRNKDDLIVCQIPGAEYSEFGSYRIVALVKKTDKDITWNNLQGKKSCHTHVGDMIGWNIPVYLISKKTKNCDLGSYFSQSCAPGSPIDSNLCKLCIGDPQNTEANTKCSLSDKEAYYGNEGAVRCLVETGDVAFVPHTAVFENTDGKNPALWAKDLKSTDFELLCPDGSRAPVSDYKKCKLSGIANHVTVTRPESVKDVVRITQNQESLYGRTGSQKDIFQMFSSSYGQNLLFNDRTQCLFEFDRMLDRDIMDDYLGKPFHKHLMSDNDCLPKSALATACSFHH | 0.8 ± 0.5 nM | -1.32 kcal/mol |  |  |  | 
